Measured values from US20210063414A1, “METHODS FOR PREVENTING AND/OR TREATING BONE LOSS CONDITIONS BY MODULATING IRISIN” (Dana-Farber Cancer Institute, Inc., priority 2018, published 2021).

Experiments:
Assay in all cases: Crosslinking/co-immunoprecipitation/mass spectrometry (TMT quantitative proteomics) to identify irisin receptors
Type in all cases: binding
[1] = target: T1, MLO-Y4 cell surface proteins (Mus musculus, UniProt O35143); conditions: co-precipitated protein Atpif1 (ATIF1_MOUSE)
T1 construct: endogenous in cells; host or cells: MLO-Y4
T1 sequence (O35143 26-106): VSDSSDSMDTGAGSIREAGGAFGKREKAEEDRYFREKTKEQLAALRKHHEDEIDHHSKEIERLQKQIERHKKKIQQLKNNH
Method in brief: (§1)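 Relative protein abundance came from 6-plex TMT MS3 quantitation on an Orbitrap Fusion Lumos, after in-gel trypsin digestion of Coomassie-stained SDS-PAGE lanes. Input was a Ni-NTA pulldown (250 mM imidazole elution) of lysates from murine MLO-Y4 cells. These cells were treated on ice with His-tagged irisin or adipsin (10 nM, 20 min) in serum-free medium, then crosslinked with 1.5 mM DTSSP for 30 min.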

[2] = target: T2, MLO-Y4 cell surface proteins (Mus musculus, UniProt P62960); conditions: co-precipitated protein Ybx1 (YBOX1_MOUSE)
T2 construct: endogenous in cells; host or cells: MLO-Y4
T2 sequence (P62960 whole entry): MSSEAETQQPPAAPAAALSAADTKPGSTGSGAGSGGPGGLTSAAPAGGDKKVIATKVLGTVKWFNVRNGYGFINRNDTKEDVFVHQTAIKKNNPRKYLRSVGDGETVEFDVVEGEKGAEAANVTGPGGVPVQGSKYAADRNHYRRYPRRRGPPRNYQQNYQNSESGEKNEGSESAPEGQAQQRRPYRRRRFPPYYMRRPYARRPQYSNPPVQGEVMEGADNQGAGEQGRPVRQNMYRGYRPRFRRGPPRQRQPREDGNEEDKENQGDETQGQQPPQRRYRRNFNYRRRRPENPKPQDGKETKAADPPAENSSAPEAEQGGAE
Method in brief: as §1

[3] = target: T3, MLO-Y4 cell surface proteins (Mus musculus, UniProt Q6ZPE2); conditions: co-precipitated protein Sbf1 (MTMR5_MOUSE)
T3 construct: endogenous in cells; host or cells: MLO-Y4
T3 sequence (Q6ZPE2 whole entry): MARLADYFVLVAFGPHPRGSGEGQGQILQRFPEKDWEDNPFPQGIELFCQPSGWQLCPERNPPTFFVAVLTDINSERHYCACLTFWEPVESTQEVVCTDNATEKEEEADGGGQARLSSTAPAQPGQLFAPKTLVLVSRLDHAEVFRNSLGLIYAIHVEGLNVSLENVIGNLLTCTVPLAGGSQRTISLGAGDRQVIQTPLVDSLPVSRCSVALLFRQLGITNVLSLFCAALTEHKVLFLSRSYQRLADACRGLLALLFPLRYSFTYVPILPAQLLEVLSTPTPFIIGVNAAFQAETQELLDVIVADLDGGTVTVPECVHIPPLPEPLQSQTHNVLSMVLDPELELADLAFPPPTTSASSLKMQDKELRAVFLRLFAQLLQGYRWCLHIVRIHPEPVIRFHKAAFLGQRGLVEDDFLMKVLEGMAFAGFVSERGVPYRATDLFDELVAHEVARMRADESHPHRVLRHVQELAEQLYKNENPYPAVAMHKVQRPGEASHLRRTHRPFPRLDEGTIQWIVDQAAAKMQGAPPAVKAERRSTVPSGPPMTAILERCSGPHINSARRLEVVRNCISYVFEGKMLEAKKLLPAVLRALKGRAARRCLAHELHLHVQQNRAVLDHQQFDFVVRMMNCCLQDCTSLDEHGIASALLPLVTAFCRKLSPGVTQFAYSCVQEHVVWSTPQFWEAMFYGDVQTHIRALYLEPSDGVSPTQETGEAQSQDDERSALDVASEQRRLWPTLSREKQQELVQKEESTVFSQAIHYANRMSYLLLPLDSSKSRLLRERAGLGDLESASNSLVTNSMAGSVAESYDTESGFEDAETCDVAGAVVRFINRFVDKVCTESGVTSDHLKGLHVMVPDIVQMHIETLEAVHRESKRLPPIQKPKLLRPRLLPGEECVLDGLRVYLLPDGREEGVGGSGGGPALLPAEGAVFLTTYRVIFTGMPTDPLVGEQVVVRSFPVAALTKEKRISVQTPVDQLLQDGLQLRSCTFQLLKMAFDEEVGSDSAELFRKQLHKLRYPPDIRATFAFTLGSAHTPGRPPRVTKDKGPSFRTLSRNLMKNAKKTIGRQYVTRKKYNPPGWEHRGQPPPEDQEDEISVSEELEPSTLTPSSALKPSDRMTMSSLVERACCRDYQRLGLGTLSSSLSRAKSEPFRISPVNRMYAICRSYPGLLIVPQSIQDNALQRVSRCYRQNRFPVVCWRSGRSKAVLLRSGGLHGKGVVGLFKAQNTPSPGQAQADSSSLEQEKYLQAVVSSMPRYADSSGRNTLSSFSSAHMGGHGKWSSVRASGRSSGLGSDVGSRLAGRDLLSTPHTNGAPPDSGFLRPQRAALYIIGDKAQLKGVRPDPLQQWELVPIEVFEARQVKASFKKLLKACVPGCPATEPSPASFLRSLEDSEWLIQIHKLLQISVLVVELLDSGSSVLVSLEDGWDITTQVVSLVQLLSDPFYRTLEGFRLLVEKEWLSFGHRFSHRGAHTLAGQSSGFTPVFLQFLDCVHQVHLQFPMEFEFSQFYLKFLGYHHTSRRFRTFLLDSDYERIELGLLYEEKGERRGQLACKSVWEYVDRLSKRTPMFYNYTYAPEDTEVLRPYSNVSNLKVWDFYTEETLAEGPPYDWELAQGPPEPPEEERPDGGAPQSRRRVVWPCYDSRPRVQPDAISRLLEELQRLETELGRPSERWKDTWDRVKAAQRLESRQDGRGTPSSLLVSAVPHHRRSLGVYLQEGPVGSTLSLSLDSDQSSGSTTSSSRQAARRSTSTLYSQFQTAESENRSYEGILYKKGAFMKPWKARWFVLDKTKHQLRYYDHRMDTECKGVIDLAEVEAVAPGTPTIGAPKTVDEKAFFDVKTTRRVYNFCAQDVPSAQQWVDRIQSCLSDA
Method in brief: as §1

[4] = target: T4, MLO-Y4 cell surface proteins (Mus musculus, UniProt Q9D051); conditions: co-precipitated protein Pdhb (ODPB_MOUSE)
T4 construct: endogenous in cells; host or cells: MLO-Y4
T4 sequence (Q9D051 31-359): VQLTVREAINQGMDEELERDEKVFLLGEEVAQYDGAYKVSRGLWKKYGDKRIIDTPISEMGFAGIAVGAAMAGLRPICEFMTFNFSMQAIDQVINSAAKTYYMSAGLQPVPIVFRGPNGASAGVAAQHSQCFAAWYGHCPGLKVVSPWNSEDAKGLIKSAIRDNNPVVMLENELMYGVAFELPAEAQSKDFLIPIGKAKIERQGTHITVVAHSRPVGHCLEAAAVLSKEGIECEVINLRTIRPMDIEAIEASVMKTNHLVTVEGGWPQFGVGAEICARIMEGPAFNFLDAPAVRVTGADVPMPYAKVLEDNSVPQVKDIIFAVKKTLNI
Method in brief: as §1

B1: irisin: secreted cleaved form of FNDC5; recombinant human/mouse irisin with C-terminal his tag produced in HEK293 cells (protein)
chain: DSPSAPVNVTVRHLKANSAVVSWDVLEDEVVIGFAISQQKKDVRMLRFIQEVNTTTRSCALWDLEEDTEYIVHVQAISIQGQSPASEPVLFKTPREAEKMASKNKDEVTMKE
modifications: left off: small tags and cut ends
notes: secreted cleaved form of FNDC5; recombinant human/mouse irisin with C-terminal his tag produced in HEK293 cells
TMT signal-to-noise ratio [1]: 229.372 | irisin/adipsin TMT signal-to-noise ratio [1]: 0.505 | irisin/adipsin TMT signal-to-noise ratio [2]: 0.277 | TMT signal-to-noise ratio [3]: 37.3228 | irisin/adipsin TMT signal-to-noise ratio [3]: 0.525 | TMT signal-to-noise ratio [4]: 123.1 | irisin/adipsin TMT signal-to-noise ratio [4]: 0.337
